Experimental findings from patent US20210338833A1 (MIT, published 2021) are described below.

Ends that are not written are not given here. * marks the point of attachment. Biotin = O=C1N[C@H]2[C@H](CS[C@H]2CCCCC(=O)*)N1

The labels stand for the following.
B1: biotinylated F12 derivative GGSGGGGSASRICPWNCKEL (peptide)
peptide: Biotin-GGSGGGGSASRICPWNCKEL
modifications: not fully specified (bridges); cysteine pairing not given here
notes: Free peptide loaded on a streptavidin coated plate for ELISA
B2: biotinylated F12 derivative GGGSASRICPWNCKEL (peptide)
peptide: Biotin-GGGSASRICPWNCKEL
modifications: not fully specified (bridges); cysteine pairing not given here
notes: as for B1
B3: biotinylated F12 derivative SASRICPWNCKEL (peptide)
peptide: Biotin-SASRICPWNCKEL
modifications: not fully specified (bridges); cysteine pairing not given here
notes: as for B1
B4: FMC63 Mimotope (H1) RVCPWSCMPI (peptide)
peptide: RVCPWSCMPI
notes: Not the 1D3 mimotope that is also called H1

One assay addresses T1, FMC63 IgG.
T1 construct: Murine monoclonal antibody to human CD19; also called FMC63 IgG antibody; biotinylated FMC63 IgG
Put plainly: flow cytometry of yeast-displayed mutant with 5 µM FMC63 IgG. Here is the method:
Specifically, a representative mimotope, […] […] To generate mutations, two complementary oligos with the codon replaced at the desired site were denatured at 95° C. and annealed by slow cooling to 25° C. (decreasing by 0.5° C./second). The annealed oligos were treated with T4 PNK (T4 Polynucleotide Kinase) to add a terminal phosphate, and then ligated into digested pCT-CON2 vector. Positive clones having the correct oligo inserted were tested and transformed into competent EBY100 yeast cells.
On the technique in general: A flow cytometer gives signals particle by particle.
RLCPWSCRAL (also called G9 X4 (Glu 9) to Ala) [FMC63 Mimotope Mutant RLCPWSCRAL]: the binding result is on record as “binds”. With RLCPWACREL (also called G9 X2 (Ser 6) to Ala) [FMC63 Mimotope Mutant RLCPWACREL], the binding result is “binds”. Same read-out and setting: the result for RACPWSCREL (also called G9 X1 (Leu 2) to Ala) [FMC63 Mimotope Mutant RACPWSCREL] reads “binds”. On the same count and under the same terms, the result for RLCPWSCAEL (also called G9 X3 (Arg 8) to Ala) [FMC63 Mimotope Mutant RLCPWSCAEL] reads “binds”. Same read-out and setting: the result for RLCPWSCREA (also called G9 X5 (Leu 10) to Ala) [FMC63 Mimotope Mutant RLCPWSCREA] reads “binds”.

The target in another assay is T2, FMC63 scFv (biotinylated).
T2 construct: Whole scFv entry (VL-(G4S)3-VH); also called FMC63-scFv monomer; biotinylated FMC63 scFv
T2 sequence (scFv, as listed by the source): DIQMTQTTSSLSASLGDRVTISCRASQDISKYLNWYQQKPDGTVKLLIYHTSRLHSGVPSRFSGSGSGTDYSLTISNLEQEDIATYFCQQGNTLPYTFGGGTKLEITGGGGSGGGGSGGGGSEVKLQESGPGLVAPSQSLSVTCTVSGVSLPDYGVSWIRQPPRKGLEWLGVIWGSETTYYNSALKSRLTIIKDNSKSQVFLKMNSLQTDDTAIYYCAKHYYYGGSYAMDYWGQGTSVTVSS
Put plainly: flow cytometry (MFI) of yeast clone with biotinylated FMC63 scFv and streptavidin-PE.
By Kd is commonly meant the constant that tells how readily two partners part at equilibrium. A lower Kd goes with higher affinity. In the case of QFQRICPWNCKELYWLPDQ [FMC63 mimotope K-F5 QFQRICPWNCKELYWLPDQ], the affinity, expressed as Kd, was 13.2 nM. That is a double-digit nanomolar value. For the molecule RICPWNCKELPSPPRIFGNR [FMC63 mimotope K-C2 RICPWNCKELPSPPRIFGNR], the equilibrium dissociation constant (Kd) worked out at 14.8 nM. On the same count and under the same terms, the result for RICPWNCKELPTPYMMFDM [FMC63 mimotope K-A3 RICPWNCKELPTPYMMFDM] reads 22.1 nM; that for RICPWNCKELYWLPDE [FMC63 mimotope K-A11 RICPWNCKELYWLPDE], 16.8 nM; that for AKRRERDYVGRICPWNCKELHPDTRHRIPV [FMC63 mimotope K-A10 AKRRERDYVGRICPWNCKELHPDTRHRIPV], 18.7 nM. Molecule PPPRICPWNCKELPLDWPW [FMC63 mimotope K-B5 PPPRICPWNCKELPLDWPW] gave a dissociation constant (Kd) of 23.8 nM. RICPWNCKEL (also called F12 mimotope) [FMC63 Mimotope (F12) RICPWNCKEL] yielded a Kd of 45.5 nM.

AGTRICPWNCKELYWLPDE [FMC63 mimotope K-D11 AGTRICPWNCKELYWLPDE] showed a dissociation constant (Kd) of 15.9 nM. On the same count and under the same terms, the value for PLSRICPWNCKELYWLPQR [FMC63 mimotope K-A5 PLSRICPWNCKELYWLPQR] was 12.8 nM.

The next assay has as its target T1, FMC63 IgG. Put plainly: ELISA, N-terminally biotinylated peptide on streptavidin plate, FMC63 IgG. For orientation: An ELISA detects its analyte on a solid surface through an enzyme-linked reagent.
With B1, the Kd worked out at 0.139 nM. B2 had a Kd of 0.141 nM. Turning to B3, binding was characterised by a dissociation constant (Kd) of 0.147 nM.

Another assay concerns the target T1, FMC63 IgG. Put plainly: yeast-display FACS (MFI) titration with biotinylated FMC63 IgG, 0.01-1000 nM.
On to RLCPWSCVPI [FMC63 Mimotope (E6) RLCPWSCVPI], for which binding was characterised by a dissociation constant (Kd) of 102 nM. In turn, RRCPWSCKKQ [FMC63 Mimotope (A12) RRCPWSCKKQ] came in with an equilibrium dissociation constant (Kd) of 540 nM. In the case of RLCPWSCREL (Parent of the alanine scan) [FMC63 Mimotope (G9) RLCPWSCREL], binding was characterised by a dissociation constant (Kd) of 25.7 nM. Consider RICPWACVEL [FMC63 Mimotope (H8) RICPWACVEL], for which the Kd is 9.5 nM. Regarding RLCPWNCREL [FMC63 Mimotope (G11) RLCPWNCREL], the Kd was determined as 18.2 nM.

Consider RICPWSCREL [FMC63 Mimotope (H11) RICPWSCREL], for which the Kd came out at 10.3 nM. As to RLCPWDCREL [FMC63 Mimotope (F8) RLCPWDCREL], binding was put at a Kd of 10.6 nM. The Kd values of the last two molecules are within 1.5-fold of each other. In the case of RMCPWSCYEL [FMC63 Mimotope (C5) RMCPWSCYEL], binding was put at a Kd of 322 nM. RLCPWACQEQ [FMC63 Mimotope (C7) RLCPWACQEQ] had a Kd of 252 nM. The same measure, in the same setting: the result for RMCPWSCRPH [FMC63 Mimotope (A8) RMCPWSCRPH] reads 397 nM; that for B4, 199 nM. Take RICPWSCMVV [FMC63 Mimotope (B7) RICPWSCMVV]: the equilibrium dissociation constant (Kd) is 376 nM.

The target of another assay is T2, FMC63 scFv. Put plainly: yeast-display FACS titration with biotinylated FMC63 scFv.
For the molecule RLCPWSCVPI [FMC63 Mimotope (E6) RLCPWSCVPI], the Kd is 126 nM. The molecule RRCPWSCKKQ [FMC63 Mimotope (A12) RRCPWSCKKQ] returned a Kd of 240 nM.

Molecule RLCPWSCREL (Parent of the alanine scan) [FMC63 Mimotope (G9) RLCPWSCREL] displayed a dissociation constant (Kd) of 50.6 nM.

RICPWACVEL [FMC63 Mimotope (H8) RICPWACVEL] gave a Kd of 38.9 nM. Regarding RLCPWNCREL [FMC63 Mimotope (G11) RLCPWNCREL], the Kd was determined as 38.4 nM.

Molecule RICPWSCREL [FMC63 Mimotope (H11) RICPWSCREL] yielded a Kd of 38.6 nM. Still for that read-out and setting: the value for RLCPWDCREL [FMC63 Mimotope (F8) RLCPWDCREL] was 41.5 nM. RMCPWSCYEL [FMC63 Mimotope (C5) RMCPWSCYEL] showed an equilibrium dissociation constant (Kd) of 238 nM. Same read-out and setting: the value for RLCPWACQEQ [FMC63 Mimotope (C7) RLCPWACQEQ] was 219 nM; that for RICPWNCKEL (also called F12 mimotope) [FMC63 Mimotope (F12) RICPWNCKEL] was 42 nM; that for B4 was 178 nM.

A further assay deals with T1, FMC63 IgG. Put plainly: yeast display FACS selection with biotinylated FMC63 IgG, first sort. The text has this: (§1) As in Example 1, a yeast library was generated using nested PCR and the primers in Table 3.
T1 sequence (VH, as listed by the source, chain 1 of 2): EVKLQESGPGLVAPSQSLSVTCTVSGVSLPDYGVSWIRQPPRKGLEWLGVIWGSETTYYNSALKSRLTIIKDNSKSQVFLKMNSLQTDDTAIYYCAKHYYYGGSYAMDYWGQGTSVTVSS
T1 sequence (VL, as listed by the source, chain 2 of 2): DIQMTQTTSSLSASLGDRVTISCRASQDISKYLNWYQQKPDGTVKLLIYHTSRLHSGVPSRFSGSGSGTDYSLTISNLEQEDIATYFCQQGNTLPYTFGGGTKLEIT
On to RLCPWACRQL [FMC63 Mimotope RLCPWACRQL], for which the binding result is recorded as “binds”.

In the case of RLCPWNCIHW [FMC63 Mimotope RLCPWNCIHW], the binding result is listed as “binds”.

As to RICPWNCSKL [FMC63 Mimotope RICPWNCSKL], the binding result is reported as “binds”. Turning to RLCPWDCLIL [FMC63 Mimotope RLCPWDCLIL], the binding result is given as “binds”. In the case of RLCPWSCMPR [FMC63 Mimotope RLCPWSCMPR], the binding result is reported as “binds”.

RLCPWHCAII [FMC63 Mimotope RLCPWHCAII]: the binding result is “binds”. In the case of RVCPWSCVEQ [FMC63 Mimotope RVCPWSCVEQ], the binding result is recorded as “binds”. As to RLCPWECRVL [FMC63 Mimotope RLCPWECRVL], the binding result is “binds”. Turning to RICPWACLSL [FMC63 Mimotope RICPWACLSL], the binding result is on record as “binds”.

The target in another assay is T1, FMC63 IgG. Put plainly: yeast display FACS selection with biotinylated FMC63 IgG, second sort.
Excerpt: as §1
As to RICPWDCKPI [FMC63 Mimotope RICPWDCKPI], the binding result was “binds”. As for RMCPWNCREL [FMC63 Mimotope RMCPWNCREL], the binding result is “binds”. As to RLCPWDCKEL [FMC63 Mimotope RLCPWDCKEL], the binding result was “binds”. Still for that read-out and setting: the value for RLCPWNCSEL [FMC63 Mimotope RLCPWNCSEL] was “binds”; that for RICPWSCVEL [FMC63 Mimotope RICPWSCVEL] was “binds”.

With RICPWSCRPL [FMC63 Mimotope RICPWSCRPL], the binding result is reported as “binds”. Regarding RLCPWNCRQL [FMC63 Mimotope RLCPWNCRQL], the binding result is recorded as “binds”. With RICPWSCMEL [FMC63 Mimotope RICPWSCMEL], the binding result is recorded as “binds”. Consider RICPWSCIEL [FMC63 Mimotope RICPWSCIEL], for which the binding result is “binds”.

In the case of RLCPWKCREL [FMC63 Mimotope RLCPWKCREL], the binding result is on record as “binds”. Regarding RLCPWNCQEL [FMC63 Mimotope RLCPWNCQEL], the binding result is listed as “binds”.

Take RLCPWSCIPF [FMC63 Mimotope RLCPWSCIPF]: the binding result is “binds”. For the molecule RLCPWSCLEI [FMC63 Mimotope RLCPWSCLEI], the binding result is on record as “binds”. Consider RLCPWSCVEQ [FMC63 Mimotope RLCPWSCVEQ], for which the binding result is “binds”. On to RICPWGCKEL [FMC63 Mimotope RICPWGCKEL], for which the binding result was “binds”. Same read-out and setting: the result for RICPWSCVKQ [FMC63 Mimotope RICPWSCVKQ] reads “binds”. The same measure, in the same setting: the result for RLCPWSCIKL [FMC63 Mimotope RLCPWSCIKL] reads “binds”.
